# According to publication PMC6996796:
# Where “and” joins values, the source holds several entries; their conditions need not be identical. Identical values can stand only once.
# Target: branched K11/K48 triubiquitin (Homo sapiens) (UniProt P0CG48)
# Assay: NMR
# Details: modification not given
# hHR23A UBA2 UBA2, P54725, sequence (P54725 315-361): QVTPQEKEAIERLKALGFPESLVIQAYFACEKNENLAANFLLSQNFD
substance,measurement,value
"hHR23A UBA2 UBA2, P54725",Kd,26 µM and 248 µM
